Experiment [1] has as its target cynomolgus BTLA on cells (cynomolgus). In words: FACS on Expi293 cells overexpressing cynomolgus BTLA, AF647 anti-human IgG Fc detection.
The target in experiment [2] is human BTLA (B- and T-lymphocyte attenuator) on cells (human) (UniProt Q7Z6A9). In words: FACS, primary human B cells, donor 149, AF647 anti-human IgG Fc secondary antibody.
The target is the same in experiment [3]. Kind of experiment: FACS competition on HEK293T.hBTLA cells; competitor hrHVEM-His-DL650.
The target of experiment [4] is recombinant human BTLA (human) (UniProt Q7Z6A9). Kind of experiment: ELISA on recombinant human BTLA.
Chain of recombinant human BTLA (human) (Q7Z6A9 31-157 limits assumed): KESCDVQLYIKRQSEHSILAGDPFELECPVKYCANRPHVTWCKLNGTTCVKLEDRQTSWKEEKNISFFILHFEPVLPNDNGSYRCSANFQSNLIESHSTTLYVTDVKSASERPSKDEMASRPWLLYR
Experiment [5] deals with human BTLA (B- and T-lymphocyte attenuator) on cells (human) (UniProt Q7Z6A9). In words: FACS competition on HEK293.BTLA cells; competitor DL650-conjugated soluble HVEM.
Experiment [6] shares this target. Kind of experiment: FACS, primary human B cells, donor 1709, AF647 anti-human IgG Fc secondary antibody.
The target is the same in experiment [7]. Kind of experiment: FACS, primary human T cells, donor 1709, AF647 anti-human IgG Fc secondary antibody.
For experiment [8] the target is unchanged. In words: FACS on HEK293T.hBTLA cells, AF647 anti-human IgG Fc detection.
Experiment [9] has the same target. In words: FACS on HEK293 cells overexpressing human BTLA, AF647 anti-human IgG Fc detection.
Experiment [10] addresses cynomolgus BTLA on cells (cynomolgus). In words: FACS on Expi293.cynoBTLA cells, AF647 anti-human IgG Fc detection.
For experiment [11], the target named is human BTLA (B- and T-lymphocyte attenuator) on cells (human) (UniProt Q7Z6A9). Kind of experiment: FACS, primary human T cells, donor 149, AF647 anti-human IgG Fc secondary antibody.
Experiment [12] has the same target. Kind of experiment: cell-based or functional assay.

Chain of human BTLA (B- and T-lymphocyte attenuator) on cells (human) (Q7Z6A9 31-289): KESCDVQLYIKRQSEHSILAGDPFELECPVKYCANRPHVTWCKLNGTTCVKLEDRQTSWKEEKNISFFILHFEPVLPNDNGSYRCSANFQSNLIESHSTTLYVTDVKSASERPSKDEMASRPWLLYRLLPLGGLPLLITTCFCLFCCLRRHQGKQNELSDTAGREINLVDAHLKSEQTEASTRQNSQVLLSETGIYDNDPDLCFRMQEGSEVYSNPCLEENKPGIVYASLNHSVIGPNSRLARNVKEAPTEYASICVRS
Chain of cynomolgus BTLA on cells (cynomolgus) (chain, as listed by the source): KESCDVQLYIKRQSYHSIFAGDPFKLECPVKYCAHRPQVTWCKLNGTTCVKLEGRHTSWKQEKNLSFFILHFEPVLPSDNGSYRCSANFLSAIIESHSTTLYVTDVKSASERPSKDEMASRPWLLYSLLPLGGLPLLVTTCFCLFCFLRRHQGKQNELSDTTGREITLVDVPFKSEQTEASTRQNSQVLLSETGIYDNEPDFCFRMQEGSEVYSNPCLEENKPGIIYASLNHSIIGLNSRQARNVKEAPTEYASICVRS

B1: JS004 (antibody, INN chains, looked up, V domains shown)
VH: QVQLVQSGAEVKKPGASVKLSCKASGYNFKHTYAHWVRQAPGQGLEWIGRIDPANGNTKYDPKFQGRATMTADTASNTAYLELSSLRSEDTAVYYCVADHYGSSLLDYWGQGTLVTVSS
VL: DVVMTQTPLSLSVTPGQPASISCKSSQSLLDSDGKTYLNWFQQRPGQSPRRLIYLVSKLDSGVPDRFSGSGSGTDFTLKISRVEAEDVGVYYCWQGTYFPYTFGQGTKLEIK
For B1, the EC50 in [1] was 0.561 nM; in experiment [2] it was 0.19 nM; in experiment [4], 2.43 nM; in experiment [6], 0.19 nM; in [7] it was 1.1 nM; in experiment [8], 5.97 nM. The concentration giving a half-maximal response (EC50) was 0.804 nM in [9], 5.25 nM in [10] and 1.3 nM in [11]. The Emax(%) in experiment [2] was 73%; in [6] it was 82%; in experiment [7] it was 56%; in experiment [11], 97%. For the same molecule, the values for the IC50 in [3] and in experiment [5] were 1.47 nM and 4.32 nM, respectively. The molecule further registered a BTLA-HVEM blockade reporter assay, EC50 in experiment [12] of 10.4 nM. Also, the Reporter EC50 in experiment [12] came to 13.1 nM.

Values taken from US20250304693A1.
